Measured values taken from patent publication US20220323583A1, “Pharmaceutical Formulations of Bi-Specific Diabodies and Use of the Same” (MacroGenics, Inc., priority 2019, published 2022).

Tests used:
[1] = Differential scanning calorimetry (DSC), thermal stability; format: physicochemical; conditions: DP buffer with or without PS80 (150 mM NaCl, 10 mM sodium phosphate, pH 6.0)
Protocol: Differential Scanning calorimetry measures the energetics of protein unfolding during a temperature ramp. Peaks represent apparent melting temperatures and the area under the peaks represent the enthalpy of the thermal transition. Data were collected for duplicate samples over 20° C. to 90° C. range using temperature ramp rate of 60° C./hour.

TF-1 = assay: Redirected killing of target cell line; format: cell-based
[2] = FLR SE-HPLC protein recovery (monomer peak area); format: physicochemical
Protocol: Four levels of PS80 were tested during this study to evaluate the blocking activity of the surfactant. Briefly, test stabilizer solutions (10 mM sodium phosphate at pH 6.0, 150 mM sodium chloride, 1.6 mg/mL BA and 0, 0.05, 0.1, or 0.2 mg/mL PS80) were added to a normal saline containing IV bag. After thorough mixing, the DART-A DP formulation was added to the same IV bag. The bag containing the dosing solution was incubated at 25±2° C. and samples were collected at 0, 24 and 48 hours (the longest proposed administration time). Each sample was analyzed using FLR/SE-HPLC and verified using ELISA to quantify DART-A protein recovery.
For both low and high concentration infusions, samples were collected at 24, 48, and 72 hours from sampling point #5. […] The data was calculated against the expected TO sample to obtain the DART-A recovery. […] Similar to other binding ELISA assays, these ranges are within the typical variation of this type of bioassay (50%-150%).
FLR SE-HPLC analysis was performed to measure protein purity, monomer purity and protein stability. The FLR SE-HPLC configuration included a fluorescence (FLR) detector (λX=280 nm, λE=340 nm), a mobile phase composition of 350 mM Mobile Phase (175 mMNaH2PO4, 175 mMNa2SO, pH 6.3) and a TosoBio TSK G3000SWXL size exclusion column. Samples were diluted to 0.1 mg/mL and stored at 5±3° C. for 24 to 96 hours prior to analysis. Eight μg of protein (or 100 μL is sample concentration was below 0.1 mg/mL) was injected for each 30-minute run. HMW and LMW species and monomer peaks were monitored.

A498 = assay: Redirected killing of target cell line; format: cell-based; conditions: A498 (CD123 negative)
RS4-11 = assay: Redirected killing of target cell line; format: cell-based
Osmolality = format: physicochemical; conditions: Stabilizer 2
U937 cells = assay: Activity against CD123-negative targets; format: cell-based
MOLM13 tumors = assay: Human T cells and Molm13 tumor cells injected subcutaneously into NSG mice; format: in vivo, NOD/SCID gamma (NSG) knockout mice
Protocol: A dose of 0.004 mg/kg and higher was active in the MOLM13 model.

[3] = target: T1, soluble recombinant human IL-3 receptor alpha (rhIL3Rα) (Homo sapiens, UniProt P26951); assay: ELISA (rhIL3Rα) DART-A quantitation assay (concentration, protein recovery); conditions: for Actual Concentration: target 20 ng/mL
T1 construct: soluble recombinant human IL-3 receptor alpha (rhIL3Rα)
T1 sequence (P26951 19-305 limits assumed): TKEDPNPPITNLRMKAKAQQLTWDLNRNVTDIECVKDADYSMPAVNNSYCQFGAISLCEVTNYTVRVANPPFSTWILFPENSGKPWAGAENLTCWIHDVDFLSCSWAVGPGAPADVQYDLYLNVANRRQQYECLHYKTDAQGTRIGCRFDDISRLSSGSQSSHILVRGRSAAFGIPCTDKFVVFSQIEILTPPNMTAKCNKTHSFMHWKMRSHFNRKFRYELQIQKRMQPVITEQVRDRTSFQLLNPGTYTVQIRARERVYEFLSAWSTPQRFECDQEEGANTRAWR
Protocol: In brief, the assay plate was coated with soluble recombinant human IL-3 receptor alpha (rhIL3Rα) overnight. […] After addition of MSD Read Buffer, the plate was inserted into the Sector Imager 2400 Plate Reader. When a voltage was applied to the plate electrodes, the bound Sulfo-TAG label produces an ECL signal, which was captured by the plate reader. A quantitative measure of the ECL signal emitted by each well was recorded, and the ECL counts emitted by the standard calibrators were used to generate a standard curve using a 4-parameter logistic (4PL) fit.

[4] = Study 1, Stabilizer 1, dual-pump infusion RT, High (5000 ng/mL), Expected or Control (T0)
[5] = Study 1, Stabilizer 1, dual-pump infusion RT, High (5000 ng/mL), T = 24 hours
[6] = Study 1, Stabilizer 1, dual-pump infusion RT, High (5000 ng/mL), T = 48 hours
[7] = Study 1, Stabilizer 1, dual-pump infusion RT, High (5000 ng/mL), T = 72 hours
[8] = Study 1, Stabilizer 1, dual-pump infusion RT, Low (100 ng/mL), Expected or Control (T0)
[9] = Study 1, Stabilizer 1, dual-pump infusion RT, Low (100 ng/mL), T = 24 hours
[10] = Study 1, Stabilizer 1, dual-pump infusion RT, Low (100 ng/mL), T = 48 hours
[11] = Study 1, Stabilizer 1, dual-pump infusion RT, Low (100 ng/mL), T = 72 hours
[12] = Study 2, Stabilizer 1, cassette 25° C., 100 rpm, High (5000 ng/mL), T = 0
[13] = Study 2, Stabilizer 1, cassette 25° C., 100 rpm, High (5000 ng/mL), T = 24 hours
[14] = Study 2, Stabilizer 1, cassette 25° C., 100 rpm, High (5000 ng/mL), T = 48 hours
[15] = Study 2, Stabilizer 1, cassette 25° C., 100 rpm, High (5000 ng/mL), T = 72 hours
[16] = Study 2, Stabilizer 1, cassette 25° C., 100 rpm, Low (100 ng/mL), T = 0
[17] = Study 2, Stabilizer 1, cassette 25° C., 100 rpm, Low (100 ng/mL), T = 24 hours
[18] = Study 2, Stabilizer 1, cassette 25° C., 100 rpm, Low (100 ng/mL), T = 48 hours
[19] = Study 2, Stabilizer 1, cassette 25° C., 100 rpm, Low (100 ng/mL), T = 72 hours
[20] = Study 3, Stabilizer 1, cassette 37° C., 100 rpm, Low (100 ng/mL), T = 0
[21] = Study 3, Stabilizer 1, cassette 37° C., 100 rpm, Low (100 ng/mL), T = 72 hours
[22] = Study 3, Stabilizer 1, cassette 37° C., 100 rpm, second group, target concentration not given, T = 0
[23] = Study 3, Stabilizer 1, cassette 37° C., 100 rpm, second group, target concentration not given, T = 72 hours

B1: DART-A: sequence-optimized CD123×CD3 bispecific diabody; chains SEQ ID NO:42 and SEQ ID NO:44 covalently bonded by a disulfide bond (protein)
chain 1: QAVVTQEPSLTVSPGGTVTLTCRSSTGAVTTSNYANWVQQKPGQAPRGLIGGTNKRAPWTPARFSGSLLGGKAALTITGAQAEDEADYYCALWYSNLWVFGGGTKLTVLGGGGSGGGGEVQLVQSGAELKKPGASVKVSCKASGYTFTDYYMKWVRQAPGQGLEWIGDIIPSNGATFYNQKFKGRVTITVDKSTSTAYMELSSLRSEDTAVYYCARSHLLRASWFAYWGQGTLVTVSSGGCGGGEVAALEKEVAALEKEVAALEKEVAALEK
chain 2: DFVMTQSPDSLAVSLGERVTMSCKSSQSLLNSGNQKNYLTWYQQKPGQPPKLLIYWASTRESGVPDRFSGSGSGTDFTLTISSLQAEDVAVYYCQNDYSYPYTFGQGTKLEIKGGGSGGGGEVQLVESGGGLVQPGGSLRLSCAASGFTFSTYAMNWVRQAPGKGLEWVGRIRSKYNNYATYYADSVKDRFTISRDDSKNSLYLQMNSLKTEDTAVYYCVRHGNFGNSYVSWFAYWGQGTLVTVSSGGCGGGKVAALKEKVAALKEKVAALKEKVAALKE
modifications: interchain disulfide bond; First Polypeptide Chain of DART-A; Second Polypeptide Chain of DART-A
[1]
  melting temperature (Tm), DSC: 64 °C
TF-1
  Max % Killing: 46%
[2]; [4]
  DART-A Monomer Peak Area in SE-HPLC FLR: 1814623 EU * min
[2]; [5]
  DART-A Monomer Peak Area in SE-HPLC FLR: 1483536 EU * min
[2]; [6]
  DART-A Monomer Peak Area in SE-HPLC FLR: 1792023 EU * min
[2]; [7]
  DART-A Monomer Peak Area in SE-HPLC FLR: 1804667 EU * min
[2]; [8]
  DART-A Monomer Peak Area in SE-HPLC FLR: 46006 EU * min
[2]; [9]
  DART-A Monomer Peak Area in SE-HPLC FLR: 37026 EU * min
[2]; [10]
  DART-A Monomer Peak Area in SE-HPLC FLR: 44708 EU * min
[2]; [11]
  DART-A Monomer Peak Area in SE-HPLC FLR: 49122 EU * min
[2]; [12]
  DART-A Monomer Peak Area in SE-HPLC FLR: 41031471 EU * min
[2]; [13]
  DART-A Monomer Peak Area in SE-HPLC FLR: 40529514 EU * min
[2]; [14]
  DART-A Monomer Peak Area in SE-HPLC FLR: 41438367 EU * min
[2]; [15]
  DART-A Monomer Peak Area in SE-HPLC FLR: 41582544 EU * min
[2]; [16]
  DART-A Monomer Peak Area in SE-HPLC FLR: 355660 EU * min
[2]; [17]
  DART-A Monomer Peak Area in SE-HPLC FLR: 379757 EU * min
[2]; [18]
  DART-A Monomer Peak Area in SE-HPLC FLR: 377121 EU * min
[2]; [19]
  DART-A Monomer Peak Area in SE-HPLC FLR: 394028 EU * min
[2]; [20]
  DART-A Monomer Peak Area in SE-HPLC FLR: 397095 EU * min
[2]; [21]
  DART-A Monomer Peak Area in SE-HPLC FLR: 368950 EU * min
[2]; [22]
  DART-A Monomer Peak Area in SE-HPLC FLR: 41031489 EU * min
[2]; [23]
  DART-A Monomer Peak Area in SE-HPLC FLR: 39005201 EU * min
A498
  Max % Killing: No activity
A498; E:T = 10:1
  EC50, redirected killing: No activity
RS4-11
  Max % Killing: 60%
Osmolality; 10 ng/mL dosing solution, Post Infusion (Infusion Time = 48 Hrs)
  Osmolality: 274 mOsm/kg
Osmolality; 10 ng/mL dosing solution, Post Storage (T = 72 Hrs), room temperature
  Osmolality: 275 mOsm/kg
Osmolality; 10 ng/mL dosing solution, T = 0
  Osmolality: 275 mOsm/kg
Osmolality; 20 ng/mL dosing solution, Post Infusion (Infusion Time = 96 Hrs)
  Osmolality: 276 mOsm/kg
Osmolality; 20 ng/mL dosing solution, Post Storage (T =72 Hrs), room temperature
  Osmolality: 276 mOsm/kg
Osmolality; 20 ng/mL dosing solution, T = 0
  Osmolality: 276 mOsm/kg
Osmolality; 1250 ng/mL dosing solution, Post Infusion (Infusion Time = 48 Hrs)
  Osmolality: 276 mOsm/kg
Osmolality; 1250 ng/mL dosing solution, Post Storage (T = 72 Hrs), room temperature
  Osmolality: 275 mOsm/kg
Osmolality; 1250 ng/mL dosing solution, T = 0
  Osmolality: 275 mOsm/kg
U937 cells
  activity against CD123-negative targets: No activity
MOLM13 tumors; 0.16, 0.5, 0.2, 0.1, 0.02 and 0.004 mg/kg dose levels
  MOLM13 tumor growth: significantly inhibited
MOLM13 tumors; mouse, in vivo
  dose active in the MOLM13 model: ≥ 4 µg/kg
[3]; Final PS80 0.1 mg/mL, Post 24 Hr Storage and 96 Hr Admin
  Actual Concentration: 19.3 ng/mL
[3]; Final PS80 0.1 mg/mL, T0
  Actual Concentration: 19.9 ng/mL
[3]; Final PS80 0.12 mg/mL, Post 24 Hr Storage and 96 Hr Admin
  Actual Concentration: 20.6 ng/mL
[3]; Final PS80 0.12 mg/mL, T0
  Actual Concentration: 21.6 ng/mL
[3]; [4]
  DART-A Concentration derived from quantitation assay: 313.7 ng/mL
[3]; [5]
  DART-A Concentration derived from quantitation assay: 235.2 ng/mL
[3]; [6]
  DART-A Concentration derived from quantitation assay: 294.3 ng/mL
[3]; [7]
  DART-A Concentration derived from quantitation assay: 254.4 ng/mL
[3]; [8]
  DART-A Concentration derived from quantitation assay: 10.6 ng/mL
[3]; [9]
  DART-A Concentration derived from quantitation assay: 6.7 ng/mL
[3]; [10]
  DART-A Concentration derived from quantitation assay: 12.9 ng/mL
[3]; [11]
  DART-A Concentration derived from quantitation assay: 11.0 ng/mL
[3]; Study 1, high concentration (target 5000 ng/mL)
  concentration as prepared, DART-A quantitation assay: 5067.5 ng/mL
[3]; Study 1, low concentration (target 100 ng/mL)
  concentration as prepared, DART-A quantitation assay: 116.7 ng/mL
[3]; [12]
  DART-A Concentration derived from quantitation assay: 5398.7 ng/mL
[3]; [13]
  DART-A Concentration derived from quantitation assay: 5241.2 ng/mL
[3]; [14]
  DART-A Concentration derived from quantitation assay: 4967.5 ng/mL
[3]; [15]
  DART-A Concentration derived from quantitation assay: 4916.7 ng/mL
[3]; [16]
  DART-A Concentration derived from quantitation assay: 110.1 ng/mL
[3]; [17]
  DART-A Concentration derived from quantitation assay: 115.5 ng/mL
[3]; [18]
  DART-A Concentration derived from quantitation assay: 103.8 ng/mL
[3]; [19]
  DART-A Concentration derived from quantitation assay: 106.2 ng/mL
[3]; [20]
  DART-A Concentration derived from quantitation assay: 111.4 ng/mL
[3]; [21]
  DART-A Concentration derived from quantitation assay: 99.4 ng/mL
[3]; [22]
  DART-A Concentration derived from quantitation assay: 5682.9 ng/mL
[3]; [23]
  DART-A Concentration derived from quantitation assay: 4661.6 ng/mL
